Experimental data reported in PMC4186839, “Streptomyces coelicolor SCO4226 Is a Nickel Binding Protein” (PLoS ONE, 2014).

Target: the molecule itself
Test: crystal structure; Se-Met labelled apo-SCO4226 crystals (1.30 Å) and the same crystals soaked about 1 hr in 0.8 M sodium citrate pH 6.5 with 0.8 M NiSO4 (Ni-SCO4226, 2.04 Å); space group P21; one dimer in each asymmetric unit

B1: SCO4226 (natural protein, Streptomyces coelicolor A3(2), UniProt Q9FCE4 1-82, looked up)
chain: MAHFMDVHRGMHGITSDQLHQAHQADLAVEKDENVHFEQAWADPASGTIYCLSEGPSAEAVQRVHERAGHKADEIHEVPLSA
modifications: seleno-methionine in place of methionine (Se-Met substituted protein)
notes: SCO4226, 82-residue hypothetical protein encoded by the open reading frame SCO4226 of Streptomyces coelicolor A3(2); residues up to Ala82 (C-terminal carboxylate) are seen in the structure; No tag is named here; also called apo-SCO4226; Se-apo-SCO4226; source: E. coli B834 (DE3), Se-Met labelled, purified (nickel-chelating Sepharose, Superdex 75 gel filtration)
B1 was tested, and the “stoichiometry N” value was 2.
